{
  "source": "patent US20260209362A1",
  "about": "(VIB VZW, published 2026)",
  "binders": {"B1": {"name": "anti-IL-12Rβ2 VHH clone 3CRH17 (clone ID 20376) (VHH, not shown: small tags and cut ends)", "VHH": "QVQLQESGGGLVQAGGSLVLSCAASGSAALIFLMSWYRQAPGKQRELVAEVSRYGSTTYADSVEGRFTISRDNAKNIVDLQMNSLKPEDTAVYYCKADQYYGDSLRSSWGRGTQVTVSS", "notes": "periplasmic extract"}, "B2": {"name": "anti-IL-12Rβ2 VHH clone 3CRH67 (clone ID 20387) (VHH, not shown: small tags and cut ends)", "VHH": "B1 VHH with V92A", "notes": "periplasmic extract"}, "B3": {"name": "anti-IL-12Rβ2 VHH clone 20450 (VHH, not shown: small tags and cut ends)", "VHH": "QVQLQESGGGLVQPGGSLRLSCAASGFTISNYAMSWVRQAPGKGLEWVSSIGSNIASTNYADSVKGRFTISRDNAKNTLYLQMNSLKPEDTAVYYCAKASQNHSPPGQGTQVTVSS", "notes": "tested as periplasmic extract; also called 2CRM61"}, "B4": {"name": "anti-IL-12Rβ2 VHH clone 20460 (VHH, not shown: small tags and cut ends)", "VHH": "B3 VHH with P14A, I29L, S30G, N31S, G52S, N54S, I55G, A56T, S57N, Q111P", "notes": "tested as periplasmic extract; also called 3CRM63"}, "B5": {"name": "anti-IL-12Rβ2 VHH clone 3CAM1 (VHH, not shown: small tags and cut ends)", "VHH": "QVQLQESGGGLVQAGGSLRLSCAASGRTFGSHRMGWFRQAPGQEREFVAAIAWRGGTQYYTDSVKGRFTISRDNANNTVYLQMNSLKPEDAAVYYCVAGEGSSWGDITDPRRYVFWGQGTQVTVSS", "notes": "tested as periplasmic extract"}, "B6": {"name": "anti-IL-12Rβ2 VHH clone 3CAM57 (VHH, not shown: small tags and cut ends)", "VHH": "QVQLQESGGGLVQAGGSLRLSCTPSGRTFSTLAMGWFRQAPGKEREVVATISWSGGRTYYASSVKSRFTISRDNAKNTAYLQMNSLRPDDTAVYYCAARGTDYGAYDYWGQGTQVTVSS", "notes": "tested as periplasmic extract; also called 20512; 3CAMS7"}, "B7": {"name": "anti-IL-12Rβ2 VHH clone 3CAM65 (VHH, not shown: small tags and cut ends)", "VHH": "QVQLQESGGGLVQAGGSLRLSCAPSGRTFTTYVMGWFRQAPGKEREFVAHISWSGGRTYYADSVKGRFTISRDNAKNTSYLQMNSLKPEDTAVYYCAAARSDAVRIGYAEGYEYWGQGTQVTVSS", "notes": "tested as periplasmic extract; also called 20513"}, "B8": {"name": "anti-IL-12Rβ2 VHH clone 2CAMS52 (VHH, not shown: small tags and cut ends)", "VHH": "QVQLQESGGGLVQPGASLRLSCATSGPTLSTYAMGWFRQAPGKEREVVATISWSGGRVTYVDSVKGRFTISRDNAKNTAYLQMNRLRPDDTAVYTCAARESDYGAYDYWGQGTQVTVSS", "notes": "tested as periplasmic extract; also called 20535; 2CAMSSZ"}},
  "key": {"[1]": {"biological_target": "biotinylated recombinant mouse IL-12Rβ2 (mouse) (UniProt P97378)", "experiment": "ELISA, P.E., biotinylated antigen"}, "[2]": {"biological_target": "T1, biotinylated recombinant human IL-12Rβ2 (human, UniProt Q99665 24-622, random biotinylated)", "T1 construct": "Recombinant protein produced in-house; also called hIL-12RB2; human IL-12RB2", "T1 sequence": "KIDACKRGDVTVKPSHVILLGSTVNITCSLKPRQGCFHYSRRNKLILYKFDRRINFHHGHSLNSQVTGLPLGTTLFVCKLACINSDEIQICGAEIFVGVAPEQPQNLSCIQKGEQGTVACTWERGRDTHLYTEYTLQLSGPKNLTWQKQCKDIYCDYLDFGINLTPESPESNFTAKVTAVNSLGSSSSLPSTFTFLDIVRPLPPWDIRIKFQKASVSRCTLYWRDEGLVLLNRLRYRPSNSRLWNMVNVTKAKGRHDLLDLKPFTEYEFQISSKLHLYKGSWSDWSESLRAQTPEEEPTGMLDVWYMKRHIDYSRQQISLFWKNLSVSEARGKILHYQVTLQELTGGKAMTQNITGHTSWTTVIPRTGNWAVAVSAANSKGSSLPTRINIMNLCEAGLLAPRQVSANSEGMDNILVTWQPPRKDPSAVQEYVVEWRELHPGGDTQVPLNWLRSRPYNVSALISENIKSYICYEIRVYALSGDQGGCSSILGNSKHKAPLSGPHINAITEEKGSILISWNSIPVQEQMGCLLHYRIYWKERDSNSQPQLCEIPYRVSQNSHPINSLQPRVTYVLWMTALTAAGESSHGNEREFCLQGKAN", "experiment": "BLI, P.E., off-rate ranking"}, "[3]": {"biological_target": "T1, biotinylated recombinant human IL-12Rβ2", "experiment": "ELISA, P.E., biotinylated antigen"}, "[4]": {"biological_target": "biotinylated recombinant human IL-12Rβ2 (human) (UniProt Q99665)", "experiment": "ELISA, periplasmic extract on biotinylated hIL-12Rβ2, signal over control wells"}, "[5]": {"biological_target": "T2, biotinylated recombinant mouse IL-12Rβ2 (mouse, UniProt P97378 24-637, random biotinylated)", "T2 construct": "Recombinant protein produced in-house, biotinylated; also called mIL-12RB2; mouse IL-12RB2", "T2 sequence": "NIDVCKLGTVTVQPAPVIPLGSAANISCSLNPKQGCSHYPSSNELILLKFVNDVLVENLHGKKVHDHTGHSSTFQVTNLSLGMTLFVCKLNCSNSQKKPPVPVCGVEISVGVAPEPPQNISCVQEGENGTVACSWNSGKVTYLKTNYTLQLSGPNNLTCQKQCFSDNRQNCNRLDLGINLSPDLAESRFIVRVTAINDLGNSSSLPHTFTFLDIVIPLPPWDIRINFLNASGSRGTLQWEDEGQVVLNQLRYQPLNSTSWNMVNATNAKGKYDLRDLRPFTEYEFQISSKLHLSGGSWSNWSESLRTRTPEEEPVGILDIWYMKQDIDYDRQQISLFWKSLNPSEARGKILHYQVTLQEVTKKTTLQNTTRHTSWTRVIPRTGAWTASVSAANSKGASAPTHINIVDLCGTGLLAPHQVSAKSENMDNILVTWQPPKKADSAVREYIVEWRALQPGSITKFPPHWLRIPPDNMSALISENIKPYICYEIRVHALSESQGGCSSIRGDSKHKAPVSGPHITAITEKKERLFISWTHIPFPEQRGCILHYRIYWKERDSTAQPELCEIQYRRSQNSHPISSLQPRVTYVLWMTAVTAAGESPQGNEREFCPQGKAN", "experiment": "ELISA, periplasmic extract on biotinylated mIL-12Rβ2, signal over control wells"}, "[6]": {"biological_target": "T3, biotinylated recombinant human IL-12Rβ2 (produced in-house) (human, UniProt Q99665 24-622, random biotinylated)", "T3 construct": "also called hIL-12RB2; hIL12RB2", "T3 sequence": "T1 sequence", "experiment": "ELISA, P.E. VHH on biotinylated hIL-12RB2"}, "[7]": {"biological_target": "T4, mouse IL-12Rβ2 expressed on cells (mouse, UniProt P97378 24-874)", "T4 construct": "HEK293T cells, stably transduced (cDNA NM_008354); also called mIL-12RB2", "T4 sequence": "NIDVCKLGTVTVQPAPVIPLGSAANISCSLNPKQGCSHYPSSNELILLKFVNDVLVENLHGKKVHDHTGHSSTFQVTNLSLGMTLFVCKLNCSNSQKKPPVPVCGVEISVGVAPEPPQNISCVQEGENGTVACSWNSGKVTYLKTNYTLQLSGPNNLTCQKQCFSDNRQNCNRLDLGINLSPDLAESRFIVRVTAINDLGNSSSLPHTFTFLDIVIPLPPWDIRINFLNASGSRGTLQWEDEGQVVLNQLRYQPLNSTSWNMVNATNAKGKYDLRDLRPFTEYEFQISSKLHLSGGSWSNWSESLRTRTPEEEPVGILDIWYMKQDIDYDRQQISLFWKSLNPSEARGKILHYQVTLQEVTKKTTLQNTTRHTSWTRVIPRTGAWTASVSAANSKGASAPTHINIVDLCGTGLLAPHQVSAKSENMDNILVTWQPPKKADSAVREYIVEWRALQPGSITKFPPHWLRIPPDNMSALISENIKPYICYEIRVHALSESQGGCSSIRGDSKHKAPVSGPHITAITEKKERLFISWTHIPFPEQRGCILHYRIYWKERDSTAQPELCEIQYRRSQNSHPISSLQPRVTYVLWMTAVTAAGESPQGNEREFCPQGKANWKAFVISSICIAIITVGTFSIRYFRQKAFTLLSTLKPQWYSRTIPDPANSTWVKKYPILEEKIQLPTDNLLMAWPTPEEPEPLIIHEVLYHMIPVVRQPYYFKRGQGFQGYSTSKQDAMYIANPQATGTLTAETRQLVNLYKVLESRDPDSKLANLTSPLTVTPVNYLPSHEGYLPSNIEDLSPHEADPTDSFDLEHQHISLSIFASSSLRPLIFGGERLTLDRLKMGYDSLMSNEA", "experiment": "flow cytometry, P.E. VHH on HEK293T cells expressing mIL-12RB2"}, "[8]": {"biological_target": "T4, mouse IL-12Rβ2 expressed on cells", "experiment": "flow cytometry, P.E. VHH on HEK293T cells stably expressing mIL-12RB2"}, "[9]": {"biological_target": "T3, biotinylated recombinant human IL-12Rβ2 …", "experiment": "ELISA, P.E. VHH on biotinylated hIL-12RB2, signal ratio to control well"}, "[10]": {"biological_target": "T5, biotinylated recombinant mouse IL-12Rβ2 (produced in-house) (mouse, UniProt P97378 24-637, random biotinylated)", "T5 construct": "also called mIL-12RB2; mIL12RB2", "T5 sequence": "T2 sequence", "experiment": "ELISA, P.E. VHH on biotinylated mIL-12RB2, signal ratio to control well"}},
  "note": "Positions count from the first letter of the chain named.",
  "data": [
    {"binder": "B1", "values": [
      {"measurement": "ELISA mIL-12RB2/control", "setting": "[1]", "result": 2.85},
      {"measurement": "Response", "setting": "[2]", "result": 0.53},
      {"measurement": "koff", "setting": "[2]", "result": 0.00446, "unit": "s⁻¹"},
      {"measurement": "ELISA hIL-12RB2/control", "setting": "[3]", "result": 9.8}
    ]},
    {"binder": "B2", "values": [
      {"measurement": "ELISA mIL-12RB2/control", "setting": "[1]", "result": 2.11},
      {"measurement": "Response", "setting": "[2]", "result": 0.617},
      {"measurement": "koff", "setting": "[2]", "result": 0.00495, "unit": "s⁻¹"},
      {"measurement": "ELISA hIL-12RB2/control", "setting": "[3]", "result": 10}
    ]},
    {"binder": "B3", "values": [
      {"measurement": "ELISA binding hIL-12RB2/control", "setting": "[4]", "result": 2.18},
      {"measurement": "ELISA binding mIL-12RB2/control", "setting": "[5]", "result": 18, "unit": "ratio"}
    ]},
    {"binder": "B4", "values": [
      {"measurement": "ELISA binding hIL-12RB2/control", "setting": "[4]", "result": 2.43},
      {"measurement": "ELISA binding mIL-12RB2/control", "setting": "[5]", "result": 16.6, "unit": "ratio"}
    ]},
    {"binder": "B5", "values": [
      {"measurement": "binding result", "setting": "[6]", "result": "no binding"},
      {"measurement": "% cells bound", "setting": "[7]", "result": 63, "unit": "%"},
      {"measurement": "dMFI", "setting": "[7]", "result": 376},
      {"measurement": "% cells bound", "setting": "[8]", "result": 63, "unit": "%"},
      {"measurement": "dMFI", "setting": "[8]", "result": 376},
      {"measurement": "ELISA hIL12RB2/control", "setting": "[9]", "result": 1.2},
      {"measurement": "ELISA mIL12RB2/control", "setting": "[10]", "result": 3.3}
    ]},
    {"binder": "B6", "values": [
      {"measurement": "binding result", "setting": "[6]", "result": "no binding"},
      {"measurement": "% cells bound", "setting": "[7]", "result": 62.2, "unit": "%"},
      {"measurement": "dMFI", "setting": "[7]", "result": 351},
      {"measurement": "% cells bound", "setting": "[8]", "result": 62.2, "unit": "%"},
      {"measurement": "dMFI", "setting": "[8]", "result": 351},
      {"measurement": "ELISA hIL12RB2/control", "setting": "[9]", "result": 1.31},
      {"measurement": "ELISA mIL12RB2/control", "setting": "[10]", "result": 47.4}
    ]},
    {"binder": "B7", "values": [
      {"measurement": "binding result", "setting": "[6]", "result": "no binding"},
      {"measurement": "% cells bound", "setting": "[7]", "result": 57.9, "unit": "%"},
      {"measurement": "dMFI", "setting": "[7]", "result": 315},
      {"measurement": "% cells bound", "setting": "[8]", "result": 57.9, "unit": "%"},
      {"measurement": "dMFI", "setting": "[8]", "result": 315},
      {"measurement": "ELISA hIL12RB2/control", "setting": "[9]", "result": 1.25},
      {"measurement": "ELISA mIL12RB2/control", "setting": "[10]", "result": 5.98}
    ]},
    {"binder": "B8", "values": [
      {"measurement": "binding result", "setting": "[6]", "result": "no binding"},
      {"measurement": "% cells bound", "setting": "[7]", "result": 60.9, "unit": "%"},
      {"measurement": "dMFI", "setting": "[7]", "result": 342},
      {"measurement": "% cells bound", "setting": "[8]", "result": 60.9, "unit": "%"},
      {"measurement": "dMFI", "setting": "[8]", "result": 342},
      {"measurement": "ELISA hIL12RB2/control", "setting": "[9]", "result": 0.97},
      {"measurement": "ELISA mIL12RB2/control", "setting": "[10]", "result": 5.41}
    ]}
  ]
}
